This is an account of results in article PMC3057930 (Proteins, 2010).

Data set [1] deals with T1, CaM1-148 (Paramecium tetraurelia, UniProt P07463). Description: CaM titration of Fl-βCaNp, fluorescence anisotropy, CaM1-148. The data set is classed as binding. Conditions: CaM1-148, Ca2+-saturated (limiting value), 10 mM CaCl2, 100 nM Fl-βCaNp, stoichiometric titration, upper limit, pH 7.4, 22 °C.
Data set [2] addresses T1, CaM1-148. Nature of the data set: Population distribution of calcium ligation species.
Data set [3] concerns CaM C-domain vs N-domain. Conditions: ref [15]; cited from earlier work.
Data set [4] has as its system CaN. To be noted: CaM binding to CaNA; ref [9],[10]; cited from earlier work.
The target of data set [5] is CaN. To be noted: cited from earlier work.
In data set [6] the target is (Ca^2+)4-CaM1-148 (Paramecium tetraurelia, UniProt P07463). To be noted: Ca2+-CaM1-148 bound to melittin; 10 mM CaCl2; ref Sorensen et al [42]; cited from earlier work.
Data set [7] deals with 15N-(Ca^2+)4-CaM1-148. Nature of the data set: 15N T2 relaxation by NMR. Type of data set: physicochemical, Paramecium. To be noted: 500 μM 15N-CaM1-148, 10-20% molar excess of peptide; 5 mM CaCl2, 50 mM HEPES, pH 7.4; 22 °C; 800 MHz; excluding mobile termini.

Marks after values point to notes of the source that are not given here.

For orientation: Kd means the constant that tells how readily two partners part at equilibrium. Lower therefore signals higher affinity. With `CC[C@H](C)[C@H](NC(=O)[C@H](C)NC(=O)[C@H](CCCNC(=N)N)NC(=O)[C@@H](NC(=O)[C@H](CCCCN)NC(=O)[C@H](CC(N)=O)NC(=O)[C@H](CCCNC(=N)N)NC(=O)[C@@H](NC(=O)[C@@H](NC(=O)[C@H](CCC(=O)O)NC(=O)[C@H](CCCCN)NC(=O)[C@H](CCCNC(=N)N)NC(=O)[C@H](C)N)[C@@H](C)CC)[C@@H](C)CC)[C@@H](C)CC)C(=O)NCC(=O)N[C@@H](CCCCN)C(=O)N[C@@H](CCSC)C(=O)N[C@@H](C)C(=O)N[C@@H](CCCNC(=N)N)C(=O)N[C@H](C(=O)N[C@@H](Cc1ccccc1)C(=O)N[C@@H](CO)C(=O)N[C@H](C(=O)N[C@@H](CC(C)C)C(=O)N[C@@H](CCCNC(=N)N)C(=O)O)C(C)C)C(C)C` [βCaNp], the Kd in data set [1] is no more than 1 nM. Besides, in data set [2] (CaM1-148, presence of βCaNp), the “cooperativity term kI–II” value was found to be 19.90 M⁻¹.

For the molecule “CaM1-148: full-length Paramecium CaM, residues 1-148”, in data set [2] (CaM1-148, absence of βCaNp), the “cooperativity term kIII–IV” value was determined as 54.39 M⁻¹ and the “cooperativity term kI–II” value turned out to be 1.73 M⁻¹. The “calcium affinity of C-domain relative to N-domain” value in data set [3] is ~ 25 fold.

Calmodulin [CaM]: the “increase of phosphatase activity of CaN” value in data set [4] is 10 fold. For the same molecule, in data set [2] (CaM alone, simulation), the “Ca2+ concentration of maximal population of intermediate (0011)” value is 2 µM and the “maximal population of intermediate (0011)” value was 70%. Also, the “dissociation constant of (Ca2+)4-CaM from CaN (range in words)” value in data set [5] (ref [35]) is on record as “low nM range”. Moreover, the “Kd of full-length CaM from CaN (range in words)” value in data set [5] (ref [36]) is “pM range”.

Mammalian CaM [mCaM]: the “calcium affinity of C-domain relative to N-domain” value in data set [3] is listed as “about 10 fold”.

For “Melittin: another peptide that forms a 1:1 complex with CaM (GIGAVLKVLTTGLPALISWIKRKRQQG)”, the “Stokes Radius” value in data set [6] is 22.94 ± 0.32 ^f Å. In addition, the “Average T2” value in data set [7] is 0.050 ± 0.006 s.
